Measured values as given in patent US11819531B2, “Multifunctional zwitterionic polymer conjugates” (Kodiak Sciences Inc., priority 2009, dated 2023).

Tested on: Liver esterase from rabbit liver
Test: Camptothecin release study from camptothecin grafted copolymer (esterase incubation, GPC at 370 nm)
Assay type: in vitro ADME
Settings: copolymer approximately 10 mg/ml in Tris Buffer, pH=8.0, rabbit liver esterase, 37° C.
Experimental: Samples of camptothecin grafted copolymer were prepared at approximately 10 mg/ml in Tris Buffer, pH=8.0. Liver esterase from rabbit liver (Sigma-Aldrich E0887-IKU, Lot #061K74451) was added to the sample and the sample was incubated at 37° C. for up to 65 hours.
GPC analysis of the samples was made using an HPLC system consisting of a Waters Alliance 2995 with Waters 2410 Refractive Index Detector, Waters 2996 Photodiode Array Detector, and a Shodex Protein KW-803 column. The mobile phase used for the elution was phosphate buffered saline containing 10% absolute ethanol. The flow rate was set to 1 ml/min and the presence of camptothecin monitored at 370 nm. Ten microliter injections of the samples were made at each time point.

In the case of “Camptothecin PC-Copolymer [camptothecin grafted copolymer]”, the “Camptothecin Released” value (Time 0 h) is reported as 0.059 mg/mL, the “Camptothecin Released” value (Time 1 h) is reported as 0.079 mg/mL and the “Camptothecin Released” value (Time 2 h) is reported as 0.132 mg/mL. The “Camptothecin Released” value (Time 3 h) was 0.130 mg/mL, the “Camptothecin Released” value (Time 4 h) was 0.128 mg/mL and the “Camptothecin Released” value (Time 17 h) was 0.208 mg/mL. For the same substance, the “Camptothecin Released” value (Time 26 h) was 0.251 mg/mL, the “Camptothecin Released” value (Time 41 h) was 0.335 mg/mL and the “Camptothecin Released” value (Time 65 h) was 0.427 mg/mL.
